This is an account of results in the supplement of paper PMC9170038.

The data set concerns MS2 coat protein. Kind of data set: apparent KD of MS2 coat protein; designed switch direction (-1 OFF switch, 1 ON switch): -1; higher = weaker reporter binding. Summed up: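 Normalised cluster fluorescence was curve-fitted, and each design's median over clusters is its apparent KD. Before this, SNAP-549-labelled MS2 coat protein was titrated from 0.7 or 1.5 nM, doubling to 3 µM, over RNA switches transcribed on Illumina chips by stalled E. coli RNA polymerase. Titrations had no input, 200 uM small-molecule ligand, or an oligonucleotide input, and steps lasted 0.8–1.5 h (lowest) to 10–20 min (highest).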

Setting [1] is: input ligand: microRNA oligo, concentration not stated.
[2] abbreviates: Eterna round: R95, input ligand: microRNA oligo, concentration not stated.
[3] abbreviates: Eterna round: R95, input ligand: FMN 200 uM.
The mark [4] stands for this setting: Eterna round: R95, input ligand: none.

For “GACCUAUAGGUAGGAUAUCAUUGCGAUUAGCUAUGAGAAGGACCACAUGAGGAUCACCCAUGUCCUCCAAUUAGCCAUUUGGUC [Fiskers ExNg1 - 7] (Eterna round: R96, puzzle: Exclusion NG 1)”, the “apparent KD of MS2 coat protein” value (input ligand: FMN 200 uM) came out at 196 nM, the “apparent KD of MS2 coat protein” value under setting [1] was 47 nM and the “apparent KD of MS2 coat protein” value (input ligand: none) is 58.3 nM.
“GGCAUGUGAGGAUAUGUACCUGAGUGCUUUGCGCUCAGGAAACAGAAGGCACAUGAGGAUCACCCAUGUGAUAA [jl-ex4-4.49 ViennaUCT mod] (Eterna round: R97, puzzle: Exclusion 4)”: the “apparent KD of MS2 coat protein” value by setting is: (input ligand: FMN 200 uM) 67.7 nM; (input ligand: none) 710 nM.
For “AGGUAACAUGAGGAUCACCCAUGUCAGGAUAUCAGUAAGAUGAGAAUAGAGUAGAGUAUGAGAAGGGACUAUAU [Excluse me! 21 - Jieux - Exclusion 1] (puzzle: Exclusion 1)”, the “apparent KD of MS2 coat protein” value under setting [2] is 37.4 nM.
In the case of “AGUACUAUCACGAAAGUGAUAGUACAAUAAGCUAGUGAAACAUGAGGAUCACCCAUGUCCUCAUUAGCUCGUCUUAU [JL turnoff v2 78] (Eterna round: R96, puzzle: Sensor v2, turn-off variant 2)”, the “apparent KD of MS2 coat protein” value (input ligand: FMN 200 uM) is 14 nM, the “apparent KD of MS2 coat protein” value under setting [1] is 258 nM and the “apparent KD of MS2 coat protein” value (input ligand: none) stood at 16.4 nM.
“GGCCGUAAUAAGGAUAUCACUAGCCUCGGCUAGUGAGAAGGUAUUACAUGAGGAUCACCCAUGUGGUCAGGCCA [E6/4-B2] (Eterna round: R97, puzzle: Exclusion 6)”: the “apparent KD of MS2 coat protein” value came to 903 nM (input ligand: FMN 200 uM) and 285 nM (input ligand: none).
Consider “AGUAACUAUCACGAAAGUGAUAGUUACACAAGUGUAAUAACAUGAGGAUCACCCAUGUCCUCAUUUGCUCGUCUUAU [Sensor 3 - 34] (puzzle: Sensor v3, turn-off variant 2)”, for which the “apparent KD of MS2 coat protein” value came to 149 nM under setting [3], 162 nM under setting [2] and 33.6 nM under setting [4].
“UAGAAGGUAGGAUAUACGAAUAAAUAGGGUAGGAAGAAGACACAUGAGGAUCACCCAUGUAGAAGGACCAAGAU [Mat - Exclusion 2 - Mod of my Tesla design - D34] (puzzle: Exclusion 2)”: the “apparent KD of MS2 coat protein” value is, setting by setting: under setting [3], 36.6 nM; under setting [2], 17.5 nM; under setting [4], 18.5 nM.
With “GUAACAUGCUGGUGAUCAUACAUGAGGAUCACCCAUGUAACAAGCUUUUUGCUCGUCUUAUAAGAUCACCAGCAUGU [Stov1/9-A3] (Eterna round: R97, puzzle: Sensor, turn-off variant 1)”, the “apparent KD of MS2 coat protein” value came to 12.2 nM (input ligand: FMN 200 uM) and 13.6 nM (input ligand: none).
Take “GGUUGGCGAGGAUAUACAUGAGGAUCACCCAUGUGAGAGAAUAAAGUGAGGAAGAAAAGUAGAAGGCGCUGACG [salish99_ex3_r3_013] (puzzle: Exclusion 3)”: the “apparent KD of MS2 coat protein” value is 1030 nM under setting [3], 42.1 nM under setting [2] and 47 nM under setting [4].
Take “CCAGCUCGUGUUAGGAUAUCCAAGCUGCGGCUGGUGGAGAAGGGACAUGAGGAUCACCCAUGUAAUAAAGAAAA [On] (puzzle: Brourd's mod of Exclusion 4)”: the “apparent KD of MS2 coat protein” value under setting [2] turned out to be 21.4 nM.
Regarding “AUUUUGUGAGGAUAUUAGUUGUAGAAAAUUGUUAGUAUAGCUGAGAAGGCACAUGAGGAUCACCCAUGUACAAC [JR_Ex4_Sub040] (Eterna round: R97, puzzle: Exclusion 4)”, the “apparent KD of MS2 coat protein” value worked out at 31.1 nM (input ligand: FMN 200 uM) and 18.1 nM (input ligand: none).
For “AGUAGUAGUAUCCGAUCCGACAUGAGGAUCACCCAUGUAGCUAGACGUGCACGCGAUGCUCGUCAGACUACCAGAUG [salish99_TOv1_r3_037] (puzzle: Sensor v3, turn-off variant 1)”, the “apparent KD of MS2 coat protein” value reads like this: under setting [3], 102 nM; under setting [2], 100 nM; under setting [4], 74.1 nM.
Take “UUUACAAGCUAUUGAUCCCACAUGAGGAUCACCCAUGUUCAUGGCCGUGAGGCUAGGUAUACAAUUGCUCGUCUUAU [mod-JR] (Eterna round: R97, puzzle: Sensor, turn-off variant 1)”: the “apparent KD of MS2 coat protein” value amounted to 59.8 nM (input ligand: FMN 200 uM) and 78.7 nM (input ligand: none).
In the case of “ACCUCACAUGAGGAUCACCCAUGUCAGGAUAUCUUUUAAAACGCGAAUCGCGUCGCUGAGAGAAGGGACAUUAA [EX1 #21] (Eterna round: R97, puzzle: Exclusion 1)”, the “apparent KD of MS2 coat protein” value (input ligand: FMN 200 uM) was found to be 99.6 nM and the “apparent KD of MS2 coat protein” value (input ligand: none) was 39.1 nM.
With “UUUAGUUCAGGAUAUGUAGACAUUAACAUGAGGAUCACCCAUGUAGAUCCUGAAUUGACUACAGAAGGGAGCAUUU [Mod of Brourd 9 - Jieux - Exclusion 5] (Eterna round: R97, puzzle: Exclusion 5)”, the “apparent KD of MS2 coat protein” value reads like this: (input ligand: FMN 200 uM) 88.9 nM; (input ligand: none) 23.9 nM.
Consider “AGUACUAACACGGGAGUGUUAGUACAAUAAGCUUGUGAAACAUGAGGAUCACCCAUGUCCUCAUAAGCUCGUCUUAU [salish99_TOv2_r3_060] (Eterna round: R96, puzzle: Sensor v3, turn-off variant 2)”, for which the “apparent KD of MS2 coat protein” value is 14.5 nM (input ligand: FMN 200 uM), 436 nM under setting [1] and 17.4 nM (input ligand: none).
For the sequence “AGGUAACAUGAGGAUCACCCAUGUCAGGAUAUCAUGAAGAGGAGAUUAGAGGAGAGGUUGAGAAGGGACUAUAU [Excluse me! 14 - Jieux - Exclusion 1] (puzzle: Exclusion 1)”, the “apparent KD of MS2 coat protein” value under setting [2] was 57.1 nM.
Still for that read-out and setting: in the case of “GGAUCUUGGGUCAGGAUAUGCUGAUAGUUAUGUCAGCAGAAGGGACAUGAGGAUCACCCAUGUGCUUGGUUUUG [Magic-17] (puzzle: Brourd's mod of Exclusion 4)” it was 13.1 nM.
As to “CUAAAUCAUGUAGGAUAUGCGUGGCGAAGCUAUGCAGAAGGACAUGAGGAUCACCCAUGUGCUUCCGUCUGAGUACAGACGGAA [Mat - Exclusion NG 1 - Mod of JL - D25] (Eterna round: R96, puzzle: Exclusion NG 1)”, the “apparent KD of MS2 coat protein” value stood at 77.2 nM (input ligand: FMN 200 uM), 160 nM under setting [1] and 232 nM (input ligand: none).
For the sequence “AUUUAACAUGAGGAUCACCCAUGUGAGGAUAUGUAAAUUUUAAACAAAUAGGAAAUGAACAGAAGGCACACCGG [JR_Exclusion1_Sub006] (puzzle: Exclusion 1)”, the “apparent KD of MS2 coat protein” value by setting is: under setting [3], 61.7 nM; under setting [2], 41.6 nM; under setting [4], 37 nM.
As for “CUCCUACAUGAGGAUCACCCAUGUCAGGAUAUCUCAGUGGCGCCUAAAUGUGCCACCCAGAGAAGGGACGUGCA [Zainceve] (puzzle: Exclusion 1)”, the “apparent KD of MS2 coat protein” value under setting [2] is 12.3 nM.
“CUCGGGCUGGUGAGGAUAUCGGGCUCUAAAGGGCUCGAGAAGGCACAUGAGGAUCACCCAUGUAAUGGCUCGGG [-29.3, -27.9 kcal, A 23%, 4-4bis] (Eterna round: R97, puzzle: Brourd's mod of Exclusion 4)”: the “apparent KD of MS2 coat protein” value came out at 17.3 nM (input ligand: FMN 200 uM) and 24.5 nM (input ligand: none).
Take “CCAAGCAAAAUCAUUAACAACAUGAGGAUCACCCAUGUGUAAGCAAUUAUGUUUGGGCUCUUUAGAGCUCGUCUUAU [JR_STOV1_Sub044] (Eterna round: R97, puzzle: Sensor, turn-off variant 1)”: the “apparent KD of MS2 coat protein” value by setting is: (input ligand: FMN 200 uM) 13.5 nM; (input ligand: none) 14.2 nM.
Consider “UAACUACAUGAGGAUCACCCAUGUCAGGAUAUGCCGUUAAAUUAACAUCAACAUACGGGUAGAAGGGACAGCGU [1st #4] (Eterna round: R97, puzzle: Exclusion 1)”, for which the “apparent KD of MS2 coat protein” value is, setting by setting: (input ligand: FMN 200 uM) 30 nM; (input ligand: none) 29.2 nM.
In the case of “GCAGUAACAUGAGGAUCACCCAUGUGGAACUCGUGAAUAAGCGAGGAUAUCUCAAGAUAUCAAAGAGAGAAGGCGUACACUGCA [Qulege] (Eterna round: R96, puzzle: Exclusion NG 3)”, the “apparent KD of MS2 coat protein” value was determined as 490 nM (input ligand: FMN 200 uM), 96.1 nM under setting [1] and 142 nM (input ligand: none).
Turning to “UGAUCUAGCGGAGGAUAUACAUGAGGAUCACCCAUGUAGAUAUCAUGACCGUAGUCGUGUAUCGUGUAGAAGGCCGCUAGAUCU [JL ENG2 3.69] (Eterna round: R96, puzzle: Exclusion NG 2)”, the “apparent KD of MS2 coat protein” value under setting [1] amounted to 12.7 nM.
In the case of “UGCGUUUGAGGAUAUACGUAGAAAUAGAUUCAUGUAAAACUACAUGAGGAUCACCCAUGUAGAAGGCAAGCGCU [Mat - Exclusion 2 - JL Mod - D39] (Eterna round: R97, puzzle: Exclusion 2)”, the “apparent KD of MS2 coat protein” value by setting is: (input ligand: FMN 200 uM) 239 nM; (input ligand: none) 26.4 nM.
With “ACAUAUGUUAGAGGAUCCUACAUGAGGAUCACCCAUGUCGGUAUAAAACUCACACGGUCAACGCUUUUUGUUCGCUA [Eternabot (L1) Solution 2] (Eterna round: R97, puzzle: Sensor, turn-off variant 1)”, the “apparent KD of MS2 coat protein” value is 30.5 nM (input ligand: FMN 200 uM) and 34.7 nM (input ligand: none).
Take “GACCUAUAGGUAGGAUAUCAUUGCGAUUAGCUAUGAGAAGGGCCACAUGAGGAUCACCCAUGUCCUCCAAUUAACCAUAAGGUC [Fiskers ExNg1 - 6] (Eterna round: R96, puzzle: Exclusion NG 1)”: the “apparent KD of MS2 coat protein” value by setting is: (input ligand: FMN 200 uM) 38.5 nM; under setting [1], 26.7 nM; (input ligand: none) 37.3 nM.
Take “UAAAGAGCAGGAUAUCUAAUGUAUCACAUGAGGAUCACCCAUGUCCAGCGAAAGCUGGAGGGAGAAGGGCUCUAAU [Mat - Exclusion 5 - Eli mod - D103] (puzzle: Exclusion 5)”: the “apparent KD of MS2 coat protein” value under setting [3] came to 178 nM, the “apparent KD of MS2 coat protein” value under setting [2] came to 182 nM and the “apparent KD of MS2 coat protein” value under setting [4] came out at 130 nM.
